Test results from patent US7045537B1, “Protein structures and protein fibres” (The University of Sussex, priority 1999, dated 2006).
Where “and” joins values, the source holds several entries; their conditions need not be identical. Equal entries are not always repeated.

T1: SAF-p2B (CH3CO at the N terminus and NH2 at the C terminus)
T1 peptide: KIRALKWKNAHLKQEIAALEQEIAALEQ

T2: SAF-p2A
T2 sequence (peptide): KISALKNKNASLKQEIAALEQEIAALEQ

T3: SAF-p2C
T3 construct: Designed peptide, uncapped ends
T3 peptide: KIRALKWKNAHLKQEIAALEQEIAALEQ

T4: SAF-p2D
T4 construct: also called Self-Assembling Fibre peptide 2
T4 peptide: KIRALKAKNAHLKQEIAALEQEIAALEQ


Key:
SAF-p2B [1] = molecular target: T1, SAF-p2B; experiment: circular dichroism of the peptide mixture, 10 µM
Experimental: (§1) Peptide samples were incubated at 5° C. in 10 mM MOPS (3-(N-Morpholino)propanesulfonic acid), pH 7. Sample concentrations were determined from their UV absorbance at 280 nm (SAF-p1) and 214 nm (SAF-p2). After baseline correction, ellipticities in mdeg were converted to molar ellipticities (deg cm^2 dmol-res^-1) by normalizing for the concentration of peptide bonds. Data were recorded in a cell of 1 mm path length by integrating the signal for 5s (and 1s for the fresh 100 µM peptide mixture) every nm in the range 205–260 nm. CD measurements were made using a JASCO J-715 spectropolarimeter fitted with a Peltier temperature controller.

SAF-p2B [2] = molecular target: T1, SAF-p2B; experiment: thermal melt by circular dichroism of the peptide mixture, 100 µM (expect 36° C. if no interaction)
SAF-p2B [3] = molecular target: T1, SAF-p2B; experiment: circular dichroism of the peptide mixture, 100 µM
Experimental: as §1

SAF-p2B [4] = molecular target: T1, SAF-p2B; experiment: thermal melt by circular dichroism of the peptide mixture, 10 µM (expect 19° C. if no interaction)
SAF-p2B [5] = molecular target: T1, SAF-p2B; experiment: thermal melt by circular dichroism of the peptide mixture, 100 µM (expect 38° C. if no interaction)
SAF-p2A [6] = molecular target: T2, SAF-p2A; experiment: circular dichroism of the peptide mixture, 10 µM
SAF-p2C [7] = molecular target: T3, SAF-p2C; experiment: circular dichroism of the peptide mixture, 10 µM
Experimental: as §1

SAF-p2A [8] = molecular target: T2, SAF-p2A; experiment: thermal melt by circular dichroism of the peptide mixture, 100 µM
SAF-p2A [9] = molecular target: T2, SAF-p2A; experiment: circular dichroism of the peptide mixture, 100 µM
SAF-p2C [10] = molecular target: T3, SAF-p2C; experiment: circular dichroism of the peptide mixture, 100 µM
Experimental: as §1

SAF-p2D [11] = molecular target: T4, SAF-p2D; experiment: circular dichroism of the peptide mixture, 10 µM
Experimental: as §1

SAF-p2D [12] = molecular target: T4, SAF-p2D; experiment: circular dichroism of the peptide mixture, 100 µM
Experimental: as §1

% α-helix of the mixture (CD) (SAF-p2B [1])	% α-helix of the mixture (CD) (SAF-p2B [3])	% α-helix of the mixture (CD) (SAF-p2A [6])	% α-helix of the mixture (CD) (SAF-p2C [7])	Tm of the mixture (CD) (SAF-p2A [8])	% α-helix of the mixture (CD) (SAF-p2A [9])	% α-helix of the mixture (CD) (SAF-p2C [10])	% α-helix of the mixture (CD) (SAF-p2D [11])	% α-helix of the mixture (CD) (SAF-p2D [12])	Binder	Tm of the mixture (CD) (SAF-p2B [2])	Tm of the mixture (CD) (SAF-p2B [4])	Tm of the mixture (CD) (SAF-p2B [5])
~70%	~80%								Ac-KIAALKQKIAALKQEIDALEYENDALEQ-NH2 (Chemically capped form of SAF-p1A) [SAF-p1B]	~35 ° C.	~25 ° C.	
	~65%	20%	~20%	30 ° C.	40%	~80%			KIAALKQKIAALKQEIDALEYENDALEQ (Prototype designed peptide, uncapped ends) [SAF-p1A]			~36 ° C. and ~46 ° C.
			~25%			~65%	~25%	~85%	KIAALKQKIASLKQEIDALEYENDALEQ (also called Self-Assembling Fibre peptide 1) [SAF-p1C]			
